Usually Km stands for the concentration of substrate that gives half-maximal velocity.

Consider one protein from ChEMBL document CHEMBL2074163, “Identification of monocarboxylate transporter 8 as a specific thyroid hormone transporter” (J Biol Chem, 2003).

Holding throughout (assay type): functional, cell-based
What all share (conditions): Oocyte

Substrate in data set [1]: N[C@@H](Cc1cc(I)c(Oc2cc(I)c(O)c(I)c2)c(I)c1)C(=O)O
Description: (§1) TP_TRANSPORTER: uptake in Xenopus laevis oocytes.

Substrate in data set [2]: NC(Cc1ccc(Oc2cc(I)c(O)c(I)c2)c(I)c1)C(=O)O
The description is as §1.

Substrate in data set [3]: N[C@@H](Cc1ccc(Oc2cc(I)c(O)c(I)c2)c(I)c1)C(=O)O
The description is as §1.

B1: Monocarboxylate transporter 8 (Rattus norvegicus), Q8K1P8 (protein)
chain: MALPSPASEEAEGPCQEANQEYQEPVCSPVPEPEPEPEPEPEPEPEPVPVPPPEPQPEPEPQPLPDPAPLPVLGFEAEPVQEPEPTPTVETRGTARGFQPPEGGFGWIVVFAATWCNGSIFGIHNSVGILYSMLLEEEKEKNRQVEFQAAWVGALAMGMIFFCSPIVSIFTDRLGCRITATTGAAVAFIGLHTSSFTSSLSLRYFTYGILFGCGCSFAFQPSLVILGHYFQRRLGLANGVVSAGSSIFSMSFPFLIKMLGDRIKLAQTFQVLSTFMFVLTLLSLTYRPLLPSSQDTPSKRGAHTLRQRFLVQFRKYFNMRVFRQRTYRIWAFGIAAAALGYFVPYVHLMKYVEDKFKEIKETWVLLVCIGATSGLGRLVSGHISDSIPGLKKIYLQVLSFLLLGLMSMMIPLCRDFGGLIVVCLFLGLCDGFFITIMAPIAFELVGPMQASQAIGYLLGMMALPMIAGPPIAGLLRNCFGNYHVAFYFAGVPPIIGAVILFFVPLMHQRMFKKEQRESSKDKMLSHDPDPNGELLPGSPTPEEPI
Consider B1, for which the Km in data set [1] turned out to be 4.7 µM; in data set [2], 2.2 µM; in data set [3], 4 µM.
